According to patent US20060069055:

Assays:
Test in all cases: EMSA
[1] = biological target: T1, NF-kB p50/p50 homodimer (Homo sapiens) (UniProt P19838); settings: score 100 = less than 50% competition at any ratio tested
T1 sequence: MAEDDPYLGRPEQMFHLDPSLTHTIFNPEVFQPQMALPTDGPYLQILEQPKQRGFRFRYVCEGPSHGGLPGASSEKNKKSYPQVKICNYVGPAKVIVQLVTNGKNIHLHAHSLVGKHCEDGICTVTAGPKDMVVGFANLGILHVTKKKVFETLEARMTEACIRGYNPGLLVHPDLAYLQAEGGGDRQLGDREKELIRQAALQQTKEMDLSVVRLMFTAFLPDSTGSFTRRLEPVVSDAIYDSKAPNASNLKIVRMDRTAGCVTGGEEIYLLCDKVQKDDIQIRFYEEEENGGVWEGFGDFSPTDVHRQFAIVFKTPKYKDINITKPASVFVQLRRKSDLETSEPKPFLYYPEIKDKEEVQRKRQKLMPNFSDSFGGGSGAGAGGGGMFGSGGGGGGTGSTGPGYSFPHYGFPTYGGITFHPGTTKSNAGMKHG

[2] = biological target: NF-kB p65/p50 heterodimer (Homo sapiens) (UniProt Q04206+P19838); settings: 50% competition not reached; same for p50/p50
Sequence of NF-kB p65/p50 heterodimer (Homo sapiens) (Q04206 whole entry, one chain of several): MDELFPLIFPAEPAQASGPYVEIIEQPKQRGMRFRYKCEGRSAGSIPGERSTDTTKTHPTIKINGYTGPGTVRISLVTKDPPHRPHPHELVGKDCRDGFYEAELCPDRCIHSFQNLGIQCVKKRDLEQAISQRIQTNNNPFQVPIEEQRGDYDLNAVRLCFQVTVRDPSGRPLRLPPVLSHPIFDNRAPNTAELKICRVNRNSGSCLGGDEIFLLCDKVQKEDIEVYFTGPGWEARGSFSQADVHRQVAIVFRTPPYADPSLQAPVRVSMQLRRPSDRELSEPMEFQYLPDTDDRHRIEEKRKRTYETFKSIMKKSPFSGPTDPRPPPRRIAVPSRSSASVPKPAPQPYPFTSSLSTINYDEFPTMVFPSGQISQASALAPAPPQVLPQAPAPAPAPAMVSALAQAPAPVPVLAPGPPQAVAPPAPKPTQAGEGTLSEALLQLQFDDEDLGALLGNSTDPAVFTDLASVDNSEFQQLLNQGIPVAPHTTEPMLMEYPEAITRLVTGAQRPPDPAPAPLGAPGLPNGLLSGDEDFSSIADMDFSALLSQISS

E2F = system: E2F

## AGTTGAGACTTTCGCAGGC (double strand) [decoy 159 G-Z]
[1]
  IC50 (fold molar excess): > 100
[2]
  IC50: 100 score

## CTAGATTTCCCGCG (double strand) [E2F reference decoy]
E2F; 40% at 40-fold excess
  binding signal (% competition at 10-fold excess): 7

## CTAGATTTCCCGCGGATC (double strand) [E2F novel decoy]
E2F; 90% at 40-fold excess
  binding signal (% competition at 10-fold excess): > 60
